In paper PMC9359538:

Assays:
[1] = target: HSV-1 glycoprotein E (HSV-1) (UniProt P04488); assay: co-IP; lysates of 293 cells infected with adenovirus expressing gE (48 h) or with HSV-1; IP with anti-gE Ab; western blot for Anx-A1; band ratio Anx-A1/gE
[2] = target: HSV-1 gE expressed from recombinant adenovirus (HSV-1) (UniProt P04488); assay: as above

B1: annexin A1 (natural protein)
chain: MAMVSEFLKQAWFIENEEQEYVQTVKSSKGGPGSAVSPYPTFNPSSDVAALHKAIMVKGVDEATIIDILTKRNNAQRQQIKAAYLQETGKPLDETLKKALTGHLEEVVLALLKTPAQFDADELRAAMKGLGTDEDTLIEILASRTNKEIRDINRVYREELKRDLAKDITSDTSGDFRNALLSLAKGDRSEDFGVNEDLADSDARALYEAGERRKGTDVNVFNTILTTRSYPQLRRVFQKYTKYSKHDMNKVLDLELKGDIEKCLTAIVKCATSKPAFFAEKLHQAMKGVGTRHKALIRIMVSRSEIDMNDIKAFYQKMYGISLCQAILDETKGDYEKILVALCGGN
Anx-A1/gE ratio in the co-precipitate [1]: 0.51
Anx-A1/gE ratio in the co-precipitate [2]: 0.44
